Source: the RNAGym collection of RNA variant scans (doi:10.7554/elife.80360)

B1: Hairpin Ribozyme (parent)
chain: GUCCUCUUUCACGUGCGCGUGAAAGAGAGAAGUGAACCAGAGAAACACACGUUGUGGUAUAUUACCUGGUA

Variants of: B1
Experiment: self-cleavage, relative activity (ratio to wild type); higher = more cleavage; co-transcriptional

Variant	self-cleavage
C3U U67G	0.164
C3U C10G	0.457
C4A G19U	0.221
C3G U20G	0.28
C3G C4U	0.277
C4A U33A	0.174
C4A U33C	0.132
C3U A24C	0.477
C4U G32C	0.114
C4U G32U	0.0825
C3U A59C	0.143
C3G A41U	0.527
C3G A41C	0.341
C3G G17A	0.388
C3U G51U	0.538
C3U G51C	0.402
C3G C66A	0.101
C3G C6G	0.214
C3G C6U	0.295
C3U G19U	0.502
C3U U62A	0.158
C4U A35C	0.418
C3U A36G	0.505
C4A G21A	0.165

Variant	self-cleavage
C3G C38A	0.119
C3A U55A	0.172
C4U A31U	0.104
C4U A31C	0.193
C3U G68U	0.19
C3U U53A	0.495
C4G A39G	0.0945
C4G A39C	0.193
C3U	0.526
C3G	0.296
C3G U14A	0.431
C3G U33A	0.138
C4G U52G	0.184
C4G U52A	0.143
C4U G42C	0.253
C3G U58A	0.0819
C4G C66U	0.178
C4G C66A	0.277
C3U C66U	0.239
C4A U9G	0.151
C4A U9C	0.163
C3G G29C	0.0773
C3G G29U	0.0672
C3G G56A	0.115

Variant	self-cleavage
C3G G56U	0.157
C3G G56C	0.112
C3G C18A	0.34
C4A A11U	0.258
C4A A11G	0.158
C4A G13U	0.248
C3U A30C	0.161
C3G G42C	0.103
C4A A71U	0.138
C4G U62C	0.148
C4G U62G	0.114
C4G C38U	0.129
C3G U53C	0.102
C3G U53G	0.235
C4A C16A	0.202
C3G A30G	0.1
C4U A59U	0.113
C4U A59G	0.163
C4G A64G	0.124
C4G A64U	0.142
C4A G68U	0.111
C3G G25C	0.0885
C3U G57U	0.204
C3U G57A	0.0631

Variant	self-cleavage
C3G A71U	0.148
C3G A71C	0.58
C3G A28U	0.647
C4U A23C	0.3
C3U U55G	0.208
C3U U55A	0.0909
C3G G54U	0.175
C3G G54C	0.126
C4G A45C	0.0824
C4A C12U	0.319
C4G A36C	0.103
C4G A36U	0.118
C3U G13C	0.324
C3U G13A	0.522
C4A A24U	0.196
C3U U58G	0.404
C3G A44U	0.114
C3U G69U	0.106
C4G U20C	0.135
C4A G34U	1.01
C3G U52C	0.359
C4G G29U	0.13
C3U U70G	0.371
C4U C16A	0.41

Variant	self-cleavage
C3U A28C	0.452
C4A U53G	0.27
C4U A71U	0.282
C3G U55G	0.0936
C3G U55C	0.118
C4U A28C	0.273
C3U C48A	0.167
C3U G54C	0.211
C4G G13A	0.193
C4U A41U	0.71
C4U A41C	0.469
C4A A45C	0.167
C4G A28U	0.0783
C4G A28G	0.443
C4G U8A	0.0905
C3U C46G	0.179
C3U C46A	0.121
C3U U33A	0.147
C3U U33G	0.126
C3U U33C	0.167
C4U G34A	0.688
C4A G51U	0.148
C4A G51A	0.232
C3G A39C	0.202

Variant	self-cleavage
C4A G42U	0.115
C3G U67A	0.0949
C4A U58G	0.183
C4A U58A	0.113
C4A C18A	0.13
C4G A26U	0.204
C3G C46A	0.0768
C3G C46U	0.101
C4A C6A	0.166
C3U G17C	0.305
C3U G17A	0.682
C3G C10A	0.18
C4A A36G	0.198
C4G U60C	0.224
C3U U7C	0.553
C3U U7G	0.464
C3U A44U	0.0496
C3G G15C	0.493
C3G A59G	0.0582
C3G A59U	0.164
C3G G57A	0.102
C3G G57C	0.0572
C3G G57U	0.0635
C4A G25C	0.153

Variant	self-cleavage
C4A A30U	0.228
C4A A30G	0.105
C3U G32C	0.133
C3G U70C	0.235
C4G U67G	0.182
C4G G17U	0.336
C4G G17C	0.121
C4G C12A	0.071
C4U G51U	0.194
C4U G51A	0.533
C3U G34A	0.747
C3G A35U	0.202
C3G A35G	0.291
C3A U67G	0.199
C3A U67A	0.132
C4U A47C	0.0918
C4U A47U	0.115
C4G U63C	0.112
C4G A31C	0.176
C4G A31U	0.183
C4G C16G	0.201
C4G G57A	0.103
C4G C18U	0.284
